Laboratory results taken from the DeepSol protein solubility set.

Experiment: soluble on expression in E. coli; label from the status in PepcDB or PDB records

Row | Sequence | soluble on expression in E. coli
1 | AHHHHHHGSLEVQGISKKWKDFHLKDISFSVMDGEYFIVLGPSGAGKTVLLEIIAGIIPPDGGKVLLDGKDITLLPPEKRGIAYVPQNYALFPNMSVFDNIAFGLKVRRVPRSEIEKRVLEISEVLGIRHLLHRKPRTLSGGEQQRVAVARALVIEPEIILLDEPFANLDVQIRSRLINEMKRWRRELGFTAIHVTHSFEEALALGDRVGIMLNGKLVQVGEIREVFSRPNSEEVAKFLGFENIIEGIADGRVLHVGKLRIELPLEAKGRVRIGIRPEDILISTERIKTSARNVFKAKVEAIEDVGPLVKLTLNVCDITLRAFITRSSLVELGIEEGKEVYASFKASAIHVF | soluble
2 | AHHHHHHGSLKLSDFIPLTMLREGETGVVVDIQSGVNARGKLLSMGITPGVRVRMIKSRKPGPVIIGIGSSKIALGWGIASKIIVRRE | not soluble
3 | AHHHHHHGSRYVKLPKENTYEFLERLKDWGKLYAPVKISDKFYDFREIDDVRKIEFHYNRTIMPPKKFFFKPREKLFEFDISKPEYREVIEEVEPFIIFGVHACDIYGLKILDTVYLDEFPDKYYKVRREKGIIIGISCMPDEYCFCNLRETDFADDGFDLFFHELPDGWLVRVGTPTGHRLVDKNIKLFEEVTDKDICAFRDFEKRRQQAFKYHEDWGNLRYLLELEMEHPMWDEEADKCLACGICNTTCPTCRCYEVQDIVNLDGVTGYRERRWDSCQFRSHGLVAGGHNFRPTKKDRFRNRYLCKNAYNEKLGLSYCVGCGRCTAFCPANISFVGNLRRILGLEENKCPPTVSEEIPKRGFAYSSNIRGDGV | not soluble
4 | AHHHHHHGSSIKIELFGITFENPLILASGVVDMTPELLRRAHKEGAGGVVTKSIGIEPRKGYDNPTVVEVPCGLINAMGLPNPGWKAFLEEFEKESFDFPVIVSIFGGNPEEFAFLAEKLERVGDAFELNLSCPHAKGYGLEIGQDPENVYRVVKAVKDVTDKPVIAKLTPNTSDITKLGLAAEKAEADGVSAINTLKAIAIDIYAKRPILSNKFGGYSGPGIKPIALRAVYDLASKLDIPIIGIGGITTWQDAVEFLLAGASAVQIGTAVYLKGFSVFREIAEGIRKYLEEEGFSSVKEIIGLAQKV | soluble
5 | AHHHHHHGSSKDRMVELLQEHFELNLYEARAYVALVAFGVLTPAELASVSEVPAPRTYDVLRSLEKKGFAMTQPGKTNKYRPVHPANVLEKFIQDWQERVKEELEAKKKAKEELLELMAPLIETEVPKYGVERVWVVRGIKNSTLKTKEMLEEAQNEILLADDGFIAVNLEDDIIKAVDRGVKTKILLTKNLLPRLKASKIIDYAKEGKLELRALDKFDLPMLICDEEVFFALEDLAARYFNYETQVWIKDHRVVALFKEKFNEYWEKAEKV | soluble
6 | AHHHHHHGSSLGGSADDTYLHEIIKKAYEAGIVIVAAAGNEGASSPSYPAAYPEVIAVGATDINDQVPYWSNRQPEVSAPGVDILSTYPDDTYETLSGTSMATPHVSGVVALIQAAYYLKYGKVLPVGTFDDMSTNTVRGILHLAVDDLGDPGWDIYYGYGIIRADKAIQLALF | not soluble
7 | AHHHHHHGSTKRVKVITDPEVIKVMLEDTRRKILQLLRNREMTISQLSEILGKMPQTIYHHIEKLKEAGLVEVKRTEMKGNLVEKYYGRTADVFYINLYMGDEELRYLARSRLKTKLDIFKKLGYKFDEEELLNVMDRILEKEHEVKVEISKEIENVEDSLKEFSNEDIIHAIEWLAMARLAQDEEYIELVKKLGQILKR | soluble
8 | AHHHHHHGSTKVYIENYGCARNRADGEIMAGLLLSSGYEIVEGEENADIVVVNSCAVKDPTEVKIARRIRELLDRGKKVIVTGCLPHVNPDAIDERVSAVLGVKSIDRIVQAVEYALRGEKLISVPDWRKRNLDKLDFPRLSPRGVHFILPIAEGCLNGCTYCATRSARGVLKSYSPEKIVEWVKWAIRQGYKEIWLSAEDTGCYGFDIGTNLAKLLDEITAIEGEFRIRVGMMNPNHVLKFLDELIEAYKDEKVYKFLHLPVQSGDNEILRRMGRTYTVEEFEEIVNAFRREFPDLNLHTDIIVGFPGESEEAFQRSLELIKRIKPDKVNVSRYSPRPGTIAAKWKQLPGWVVKERSRIMHRVRLQISYEINQRYVGRKVDILVHGEGKKGNVDAVTMNYKHIIIPRGEKGEFARAKVNGATSTYLLGEIVD | not soluble
9 | AHHHHHHGSTQKKLIEYTNPSTSRRKITRIPIDSPDYPPLLKQIKDPPKIIYAIGNVRLLNKPAVAIVGTRQPSERGEYYAEKVAEFYAKQGFVIVSGLALGIDSIVIKTALKTGAHVIGVLPSPVNDIVPKSNEKLAEKIIRSGGLLISELPEGTKPKKYHFVRRNRIISGISFAVVVIESELKDGTMHTVKFAKQQRRIILVTNLPASGNAKLKNEGFPILDF | soluble
10 | AIAAKDILGEAGLHFDELNKLRVLDPEVTQQTIELKEECKDFVDKIGQFQKIVGGLIELVDQLAKEAENEKMKAIGARNLLKSIAKQREAQQQQLQALIAEKKMQLERYRVEYEALCKVEAEQNEFIDQFIFQK | soluble
11 | AIAASALEQFVNNVRQLSAQGQMTQLCELINKSGELLAKNLSHLDTVLGALDIQEHSLGVLAVLFVKFSMPNIPDFETLFSQVQLFISTCNGEHIRYATDTFAGLCHQLTNALVERKQPLRGISILKQAIDKMQMNTNQLTSVHADLCQLCLLAKCFKPAVPFLELDMMDICKENGAYDAKHFLCYYYYGGMIYTGLKNFERALYFFEQAITTPAMAVSHIMLEAYKKYILVSLILHGKVQQLPKYTSQIVGRFIKPLSNAYHELAQIYATNNPAELRALVNKHSETFTRDNNSGLVKQCLSSLYKKNIQRLTKTFLTLSLQDMASRVQLSGPQEAEKYVLHMIEDGEIYASINQKDGMVCFHDNPEKYNNPAMLHKIDQEML | soluble
12 | AIAESTKSNDIPILRNVSDSFSDHYGKYLQRCGIFVPKDGDSSGPDAYVVFHNGQTRYVVAFSFTFYHKTEFSKRDIEKEAEQFFQEVISVLNDGSPSSVQLCFQFVVVCTRYDRSVVFSSEEQNIVEDASYLVTEHSAGSTLNESRRSCLQLVVVSQRNLERFLGRENFDILRKIGKASREEFRKDFSVWCKTVFESMSDEYVSPLEAKPFNVTLRVARNIRPRTNEENRMQMEGFQTAMQVEEGNTRGEQRVAASSSLSSSFDWNTFLREYCGLSEEDVAYCLPKVEDIDMDELPAVTKEILRDLGIDKPALRLKIRSSIRSYLANER | soluble
13 | AIAGANEDQEMELEALRSIYEGDNSFRELSPVSFQYRIGEDGDPKAFLIEVSWTETYPQTAPVISMNAFFNNTISSAVKQSILAKLQEAVEVNLGTAMTYTLFEYAKDHKEQFMENHHPGNSATPVANIISVETPTTAPSSKKKEKKEQLSKAQKRKLADKTDHKGELPRGWNWVDVVKHLSKTGSKDDE | soluble
14 | AIANDEYYLELSENPVQFENASSVNNVFFDEANKQVFAVRSGGATGVVVKGPDDKSSVAFRMDDKGEVKCIKFSLGNKILAVQRTTKSVDFINFIPDYPHLEFSHECKTKNASILGFCWTNWNEIVFVTDQGIEFYQVLPDKRTLKLLKSQSINVNWYIYCPETAVLLLSTTVQGNVLQPFAFKTATMSKMSKFEIELPAVPKPAKLSLSERDIAVATIYDQLYVMYLKHHSRTTNSPGAEVVLYHLPREGTCKRTNVLRLNTTGKFAINVVDNLVVVHHQTTQTSLIYDIKLRELDGNVNVHQPVLPARSINPFKIPLTGPAAAPSQAPLPCELYSSSWSVFQPDIIISASEGFLWYLQVKLQPTLNLLQDKGKLMDFLLRRRDCKMVILSVCSQMLIGGDKGNLSVVATVFDKLNQVYKEYLDAEQAYTAVNEQNSCFTLYLANTYNNM | soluble
15 | AIAPTGEDNIVVPPAFDGESVSKNKEIYVTFGVDVDAVAGWLGSYGGEDSPFDISRGICAAEVGVPRLLELFRRFDLKTTWFLPGHSVESFPLQMRQVVAAGHEVGAHGYSHENPVRMTPKQEEDVLALSVQILENLTGKKPKGYVAPWWELSAATPELLLRYGFKYDHSQGHHDFQPYYARTAEKWTNIDYSKPARDWMKPLDRGQSVDLVEIPANWYVDDLPPMMFIKSAPNSHGFMNPRDIEDLWRDQFEWVYREYNFAVFPITIHPDVSGRPQVLLMLERFISYIRRFPGVHWTTMEEVAQIFRNKQPFLNA | soluble
16 | AIATDSASLQFVSPYAFEAMQKVDVARLAALSDPELRLLLPCLVRMALCAPADQSNAWAQDKKLILRLLSGVEAVNSIVALLSVDFHALEQDARKEQQLRHKAGGSNGESILVSQLQHGLTLEFEHSDPLRRLRLALSELLAIMNKVQCPFIYSCIGMLIRVIFPTGAH | soluble
17 | AIAVGHKYPVKCLEVDKSKGRLVVSHRRAMAERQMEHLKTGALVEGTVQGVKPYGVFVDVFGTSGLLHISQISHDQVANIQSLFLPGEKVKCMVVSFDKQRGRISLSTKALEPHPGDMLRNKQLVYEKAEEMALSYNQRMDSPVRSKNTTSSSTDDIIAGLDIGSLDDLDPILFGTHTNSSNSNTHSDHLKQDSMNGTIPESDI | soluble
18 | AIWRSRSFDEAIEMFRESLYSAKNEVIVVTPSEFFETIREDLIKTLERGVTVSLYIDKIPDLSEFKGKGNFFVRQFYKLNHLIGMTDGKEVVTIQNATFDSIGPPSFKSTYPEIIFSQYSLIIEIFKESTLEKEIIGNPKDIRFFAMFHAVDFVKNHLKNRNIYAEITGKNLESGRLETLTGRVVGYTLSLREAVNNIHLETENGVVKVGGMFAVIEDYESTEIKFIMGGSRS | soluble
19 | AKGEVWEAKPVGAAALPQWIRGRLDKIGLGIEADALALFAERVEGNLLAARQEIDKLGLLYPKGHTVNIDEAQTAVANVARFDAFQLAGAWMKGDVLRVCRLLDGLREEGEEPVLLLWAVAEDVRTLIRLAAALKQGQSIQSVRNSLRLWGDKQTLAPLAVKRISVVRLLDALKTCAQIDRIIKGAEDGDAWTVFKRLVVSLAE | soluble
20 | AKIYDKNGELVKTLDNGQRHEHVNIKDVPKDMKNAVLATEDNRFYQHGALDYKRLFGAIGKNLTGGFGSQGASTLTQQVVKDSFLTQQKSIGRKAQEAYLSYRLEQEYSKDEIFQVYMNKIYYSDGVTGIKAAAKYYFNKDMKDLNLAEEAYLAGLPQVPNLYNIYNNP | not soluble
21 | AKPIDVSRLDLRIGCIITARKHPDADSLYVEEVDVGEIAPRTVVSGLVNHVPLEQMQNRMVILLCNLKPAKMRGVLSQAMVMCASSPEKIEILAPPNGSVPGDRITFDAFPGEPDKELNPKKKIWEQIQPDLHTNDECVATYKGVPFEVKGKGVCRAQTMSNSGIKLEHHHHHH | soluble
22 | AKRYWNANLDTYHPKNVSQNRALLTIRVFVHNFNPEEGKGLTFVGSPGVGKTHLAVATLKAIYEKKGIRGYFFDTKDLIFRLKHLMDEGKDTKFLKTVLNSPVLVLDDLGSERLSDWQRELISYIITYRYNNLKSTIITTNYSLQREEESSVRISADLASRLGENVVSKIYEMNELLVIKGSDLR | soluble
23 | AKVQAYVSDEIVYKINKIVERRRAEGAKSTDVSFSSISTMLLELGLRVYEAQMER | soluble
24 | ALQAAADIDTVVFDLNGTLTQGKMVVKSLHITDKKYLRPIALLESQSDHPVAKIIKSYMEQQDTASTEPLEITSIDKSHHSGMKGIINGEVFIIGNKDMLAANGITSIDKPYDNPEKGSVYIVRGTTVIGQIALIDPLREDAIATVKQLKRLGKSVHICTGADQATAEKYAALLGIPKDNICANTVGAVTKKGEVSKTSYIQQLKQKGFKVAMVGDAANDATAIAYSDIGIAVKSSIGDSITEQHAGIVVQQGLLFPIATAFDVAQKTKQNIFQNLFVSLSYNSIIT | not soluble
25 | ALQNKEEEKKKVKKLQKSYFDVLGICCTSEVPIIENILKSLDGVKEYSVIVPSRTVIVVHDSLLISPFQIAKALNEARLEANVRVNGETSFKNKW | soluble
